Columns and labels:
Grb2 SH2 = Grb2 SH2 (UniProt P62993); experiment: SH2 binding enrichment of the phosphorylated peptide, bacterial display (enrichment ratio); higher = better substrate or ligand; peptides without Tyr show the background
SHP2-C SH2 = experiment: as above
c-Src SH2 = experiment: as above
MERTK = MERTK (UniProt Q12866); experiment: phosphorylation enrichment, bacterial display (enrichment ratio); higher = better substrate or ligand; peptides without Tyr show the background
c-Abl (mouse) = experiment: as above
AncSZ = experiment: as above
Fes = Fes (UniProt P07332); experiment: as above
Fyn = Fyn (UniProt P06241); experiment: as above
EPHB2 = EPHB2 (UniProt P29323); experiment: as above
Hck = Hck (UniProt P08631); experiment: as above
c-Src = experiment: as above
Fer (mouse) = experiment: as above
FGFR3 = FGFR3 (UniProt P22607); experiment: as above
FGFR1 = FGFR1 (UniProt P11362); experiment: as above
Jak2 = Jak2 (UniProt O60674); experiment: as above
EPHB1 = EPHB1 (UniProt P54762); experiment: as above
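For SH2 binding enrichment of the phosphorylated peptide, bacterial display in this document: peptide library displayed on the E. coli surface as eCPX fusions, selected cells deep-sequenced, score is each peptide's frequency after selection divided by its frequency in the input.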
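For phosphorylation enrichment, bacterial display in this document: 11-residue human phosphosite peptides and single-mutation variants displayed on the E. coli surface, counted by deep sequencing, each peptide's frequency after selection divided by its frequency in the unselected input library; frequency after pTyr selection over input frequency; kinase dosed for 20-30% of maximal phosphorylation in three min.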

Sequence of Hck (P08631 whole entry, looked up): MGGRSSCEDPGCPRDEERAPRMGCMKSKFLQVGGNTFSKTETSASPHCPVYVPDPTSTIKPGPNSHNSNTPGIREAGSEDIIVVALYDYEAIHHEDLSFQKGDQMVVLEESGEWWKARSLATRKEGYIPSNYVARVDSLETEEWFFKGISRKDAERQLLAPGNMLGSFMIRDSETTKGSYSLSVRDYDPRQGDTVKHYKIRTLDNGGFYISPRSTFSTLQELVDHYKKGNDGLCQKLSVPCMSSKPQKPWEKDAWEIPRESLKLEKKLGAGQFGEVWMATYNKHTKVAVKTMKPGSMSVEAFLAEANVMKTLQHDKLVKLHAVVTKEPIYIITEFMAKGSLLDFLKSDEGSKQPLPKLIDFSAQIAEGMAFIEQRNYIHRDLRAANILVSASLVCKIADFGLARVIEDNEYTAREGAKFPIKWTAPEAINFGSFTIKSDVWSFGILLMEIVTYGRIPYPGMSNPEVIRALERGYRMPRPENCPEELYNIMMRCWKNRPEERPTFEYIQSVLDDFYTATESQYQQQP
Sequence of EPHB1 (P54762 whole entry, looked up, the tested form may be a part): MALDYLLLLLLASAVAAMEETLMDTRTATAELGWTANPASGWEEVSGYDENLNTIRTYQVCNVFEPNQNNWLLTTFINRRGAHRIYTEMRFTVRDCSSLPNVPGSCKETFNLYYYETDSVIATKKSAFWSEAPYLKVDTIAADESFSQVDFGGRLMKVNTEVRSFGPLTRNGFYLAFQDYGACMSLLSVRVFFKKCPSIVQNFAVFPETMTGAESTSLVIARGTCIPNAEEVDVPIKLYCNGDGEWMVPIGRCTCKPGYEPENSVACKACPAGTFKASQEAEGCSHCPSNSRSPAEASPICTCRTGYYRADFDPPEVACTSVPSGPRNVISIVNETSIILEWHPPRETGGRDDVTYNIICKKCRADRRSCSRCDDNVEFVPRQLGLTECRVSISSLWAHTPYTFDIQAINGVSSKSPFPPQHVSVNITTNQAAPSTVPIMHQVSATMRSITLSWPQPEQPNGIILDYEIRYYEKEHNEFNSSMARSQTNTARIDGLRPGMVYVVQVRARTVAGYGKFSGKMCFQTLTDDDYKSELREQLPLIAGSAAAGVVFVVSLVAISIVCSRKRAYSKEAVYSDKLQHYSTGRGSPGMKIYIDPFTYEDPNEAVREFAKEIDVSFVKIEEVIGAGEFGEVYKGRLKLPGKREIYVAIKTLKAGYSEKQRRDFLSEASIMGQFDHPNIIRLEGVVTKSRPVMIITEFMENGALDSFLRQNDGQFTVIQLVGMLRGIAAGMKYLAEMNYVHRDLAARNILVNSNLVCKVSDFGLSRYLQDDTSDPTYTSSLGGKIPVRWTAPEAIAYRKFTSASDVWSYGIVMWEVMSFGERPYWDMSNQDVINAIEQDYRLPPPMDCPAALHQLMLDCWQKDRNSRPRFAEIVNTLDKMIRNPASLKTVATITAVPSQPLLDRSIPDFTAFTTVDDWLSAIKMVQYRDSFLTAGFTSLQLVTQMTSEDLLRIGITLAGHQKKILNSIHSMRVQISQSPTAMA
Sequence of Fes (P07332 whole entry, looked up): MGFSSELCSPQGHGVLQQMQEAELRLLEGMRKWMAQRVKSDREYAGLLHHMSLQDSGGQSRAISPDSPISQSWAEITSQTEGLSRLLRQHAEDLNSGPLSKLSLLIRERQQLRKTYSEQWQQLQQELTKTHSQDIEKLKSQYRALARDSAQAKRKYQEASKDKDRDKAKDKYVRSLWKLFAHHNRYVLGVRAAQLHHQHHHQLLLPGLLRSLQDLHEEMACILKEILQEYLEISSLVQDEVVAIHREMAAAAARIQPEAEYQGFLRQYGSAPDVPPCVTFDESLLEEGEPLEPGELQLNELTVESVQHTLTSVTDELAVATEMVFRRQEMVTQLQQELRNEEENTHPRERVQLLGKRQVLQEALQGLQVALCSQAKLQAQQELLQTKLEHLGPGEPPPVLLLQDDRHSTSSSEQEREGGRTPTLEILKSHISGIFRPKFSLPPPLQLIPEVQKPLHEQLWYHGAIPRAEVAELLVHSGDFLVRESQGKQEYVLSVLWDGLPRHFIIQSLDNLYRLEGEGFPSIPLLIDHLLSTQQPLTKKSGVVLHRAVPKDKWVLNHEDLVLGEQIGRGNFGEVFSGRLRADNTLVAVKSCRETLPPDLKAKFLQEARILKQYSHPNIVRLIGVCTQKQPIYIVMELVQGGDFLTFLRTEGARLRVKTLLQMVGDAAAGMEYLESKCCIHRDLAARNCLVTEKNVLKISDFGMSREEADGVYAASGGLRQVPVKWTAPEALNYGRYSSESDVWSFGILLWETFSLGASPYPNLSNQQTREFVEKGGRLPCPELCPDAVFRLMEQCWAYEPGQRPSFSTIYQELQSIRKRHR
Sequence of Fyn (P06241 whole entry, looked up): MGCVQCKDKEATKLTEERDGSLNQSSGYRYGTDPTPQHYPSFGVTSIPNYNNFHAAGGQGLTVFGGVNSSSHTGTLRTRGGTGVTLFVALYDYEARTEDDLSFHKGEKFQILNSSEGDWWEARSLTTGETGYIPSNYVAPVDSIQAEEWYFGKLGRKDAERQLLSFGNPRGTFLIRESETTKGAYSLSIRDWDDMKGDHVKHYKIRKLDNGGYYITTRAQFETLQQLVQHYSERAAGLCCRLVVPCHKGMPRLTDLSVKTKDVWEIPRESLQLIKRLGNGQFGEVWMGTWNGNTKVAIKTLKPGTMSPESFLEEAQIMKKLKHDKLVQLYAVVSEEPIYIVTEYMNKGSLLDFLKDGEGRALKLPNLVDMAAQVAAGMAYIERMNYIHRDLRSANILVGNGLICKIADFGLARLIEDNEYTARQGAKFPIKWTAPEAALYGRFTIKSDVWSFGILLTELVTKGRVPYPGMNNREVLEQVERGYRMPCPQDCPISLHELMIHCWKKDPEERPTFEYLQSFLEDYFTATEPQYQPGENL
Sequence of EPHB2 (P29323 whole entry, looked up): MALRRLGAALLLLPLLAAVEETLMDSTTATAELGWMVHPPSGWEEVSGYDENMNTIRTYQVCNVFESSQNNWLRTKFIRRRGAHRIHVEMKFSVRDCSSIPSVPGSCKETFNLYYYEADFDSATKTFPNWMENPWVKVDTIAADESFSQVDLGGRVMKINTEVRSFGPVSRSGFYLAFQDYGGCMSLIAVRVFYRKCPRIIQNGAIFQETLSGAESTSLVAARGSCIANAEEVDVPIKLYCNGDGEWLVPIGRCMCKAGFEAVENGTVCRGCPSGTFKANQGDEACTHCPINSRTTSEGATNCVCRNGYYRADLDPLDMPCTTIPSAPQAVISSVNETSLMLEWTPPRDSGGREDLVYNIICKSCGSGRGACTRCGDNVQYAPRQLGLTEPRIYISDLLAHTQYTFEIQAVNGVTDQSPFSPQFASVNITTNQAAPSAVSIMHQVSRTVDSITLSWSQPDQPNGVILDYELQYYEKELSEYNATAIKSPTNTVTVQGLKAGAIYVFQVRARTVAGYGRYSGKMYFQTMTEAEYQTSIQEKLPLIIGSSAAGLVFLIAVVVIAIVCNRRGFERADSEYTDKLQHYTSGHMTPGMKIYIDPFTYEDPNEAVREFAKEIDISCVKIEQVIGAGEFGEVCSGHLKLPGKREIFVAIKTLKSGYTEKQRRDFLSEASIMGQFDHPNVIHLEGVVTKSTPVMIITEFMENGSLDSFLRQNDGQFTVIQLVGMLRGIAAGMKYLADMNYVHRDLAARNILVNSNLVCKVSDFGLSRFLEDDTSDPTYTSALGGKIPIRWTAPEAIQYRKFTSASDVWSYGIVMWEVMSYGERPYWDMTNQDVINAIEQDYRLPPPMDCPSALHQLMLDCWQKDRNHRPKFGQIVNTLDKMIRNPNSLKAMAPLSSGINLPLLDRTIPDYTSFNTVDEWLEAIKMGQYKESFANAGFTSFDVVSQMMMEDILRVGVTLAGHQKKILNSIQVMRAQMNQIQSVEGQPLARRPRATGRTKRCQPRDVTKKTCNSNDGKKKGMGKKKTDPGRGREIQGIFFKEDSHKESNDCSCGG
Sequence of Jak2 (O60674 whole entry, looked up): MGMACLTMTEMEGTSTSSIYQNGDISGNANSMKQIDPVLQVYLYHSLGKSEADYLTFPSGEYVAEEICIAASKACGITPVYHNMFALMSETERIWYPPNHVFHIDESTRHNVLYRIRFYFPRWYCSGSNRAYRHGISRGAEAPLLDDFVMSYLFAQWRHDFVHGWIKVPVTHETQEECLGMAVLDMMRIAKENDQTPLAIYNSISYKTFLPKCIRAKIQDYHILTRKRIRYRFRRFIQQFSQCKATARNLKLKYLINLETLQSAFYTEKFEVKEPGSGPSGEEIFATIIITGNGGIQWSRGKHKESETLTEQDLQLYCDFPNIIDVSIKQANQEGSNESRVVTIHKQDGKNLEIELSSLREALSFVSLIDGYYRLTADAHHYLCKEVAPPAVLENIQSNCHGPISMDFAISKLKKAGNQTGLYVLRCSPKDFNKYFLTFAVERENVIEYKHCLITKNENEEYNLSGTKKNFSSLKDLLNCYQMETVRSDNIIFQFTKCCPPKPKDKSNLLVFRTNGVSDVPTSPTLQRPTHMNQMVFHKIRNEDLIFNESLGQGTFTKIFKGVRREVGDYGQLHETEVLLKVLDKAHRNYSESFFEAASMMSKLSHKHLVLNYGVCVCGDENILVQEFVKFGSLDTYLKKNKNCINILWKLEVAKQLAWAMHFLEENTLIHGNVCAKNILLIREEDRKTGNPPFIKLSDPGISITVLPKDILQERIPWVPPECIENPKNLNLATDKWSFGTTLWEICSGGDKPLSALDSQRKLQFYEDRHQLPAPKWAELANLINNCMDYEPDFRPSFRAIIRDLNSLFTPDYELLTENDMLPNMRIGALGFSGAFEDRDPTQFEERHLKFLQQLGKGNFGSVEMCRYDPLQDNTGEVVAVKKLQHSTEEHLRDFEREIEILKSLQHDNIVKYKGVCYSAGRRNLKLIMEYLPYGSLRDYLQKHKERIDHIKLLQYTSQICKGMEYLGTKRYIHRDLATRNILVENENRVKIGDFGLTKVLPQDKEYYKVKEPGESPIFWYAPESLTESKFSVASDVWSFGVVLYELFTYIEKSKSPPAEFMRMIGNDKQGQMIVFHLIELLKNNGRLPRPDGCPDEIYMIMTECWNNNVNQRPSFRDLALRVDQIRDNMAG

Sequence	SH2 binding enrichment (Grb2 SH2)	SH2 binding enrichment (SHP2-C SH2)	SH2 binding enrichment (c-Src SH2)	phosphorylation enrichment (MERTK)	phosphorylation enrichment (c-Abl (mouse))	phosphorylation enrichment (AncSZ)	phosphorylation enrichment (Fes)	phosphorylation enrichment (Fyn)	phosphorylation enrichment (EPHB2)	phosphorylation enrichment (Hck)	phosphorylation enrichment (c-Src)	phosphorylation enrichment (Fer (mouse))	phosphorylation enrichment (FGFR3)	phosphorylation enrichment (FGFR1)	phosphorylation enrichment (Jak2)	phosphorylation enrichment (EPHB1)
SREDIYKRNTE [PDE4DIP_Y45_I49T]	0.685	0.691	0.344	0.374	0.898	0.8	1.05	0.409	0.416	0.429	0.451	0.463	0.696	0.411	0.81	0.62
IDFARYWHGND [MMP11_Y162_D166N]	0.807	0.708	0.525	0.372	0.504	0.918	0.835	0.431	0.486	0.479	0.345	0.423	0.551	0.508	0.564	0.556
QDTSRYTVSNL [BIRC3_Y245]	0.879	0.54	0.453	0.567	0.804	0.971	0.824	0.523	0.467	0.467	0.617	0.501	0.71	0.516	0.644	0.675
YCVDCYKNFVA [FHL1_Y213]	1.19	0.838	1.02	0.722	0.737	0.668	0.832	0.532	0.514	0.54	0.507	0.532	0.651	0.572	0.726	0.564
SVVVPNEPPEV [TP53_Y220_Y220N]	0.825	0.783	0.538	0.439	0.711	1.03	1.43	0.539	0.665	0.581	0.517	0.691	0.81	0.63	1.05	0.645
KIVQDYLEKFY [MMP8_Y36_T32I]	1.02	0.812	0.504	0.483	0.579	0.885	0.975	0.452	0.735	0.47	0.449	0.428	0.595	0.521	0.719	0.557
KASGKYFAMKI [AKT3_Y173_YF]	1.37	1.45	1.21	0.367	0.447	0.495	0.626	0.344	0.338	0.323	0.351	0.34	0.421	0.347	0.508	0.372
PGLRGYPGLSG [COL4A2_Y306]	0.958	0.698	0.383	0.599	0.508	0.709	0.87	0.481	0.442	0.505	0.674	0.449	0.468	0.621	1.45	0.894
SMGHRYIEVFR [HNRNPF_Y82_K87R]	0.936	1.33	3.04	0.474	0.514	0.622	0.691	0.335	0.576	0.453	0.367	0.483	0.506	0.53	0.688	0.451
EYQKKYSDADI [CKAP5_Y1860_K1857Q]	1	0.808	0.473	0.432	0.706	0.913	0.998	0.37	0.481	0.383	0.45	0.597	0.589	0.46	0.841	0.491
EVVGRYSVHFA [MLH1_Y183_N187Y_YF]	0.909	0.798	0.532	0.448	0.531	0.92	0.978	0.579	0.49	0.504	0.436	0.424	0.676	0.529	0.692	0.612
YRRITYYNWRH [PDE6B_Y556_H557Y]	0.742	0.562	0.547	0.512	0.539	0.64	0.549	0.483	0.457	0.46	0.47	0.442	0.598	0.497	0.47	0.417
IRQDDYESLKE [MTR_Y921_H920D]	0.907	0.707	0.514	0.474	1	1.32	1.15	0.455	0.553	0.571	0.533	0.463	0.608	0.5	1.13	0.633
PPSLSYLSFEG [EXOSC3_Y143_A139P]	1.07	0.814	0.504	0.602	0.702	0.756	0.886	0.464	0.448	0.517	1.1	0.451	0.713	0.595	1.36	0.556
PGGNIYISPLK [RB1_Y805]	1.39	1.72	1.04	0.685	1.75	0.902	0.58	0.804	0.571	2.65	0.757	0.804	0.526	0.545	0.529	0.4
QEGPEYWDEET [HLA-A_Y83_Q86E]	0.91	0.699	0.646	1.07	1.32	2.5	1.88	1.02	1.25	1.05	0.796	0.951	1.33	1.24	1.38	1.25

Reference: the supplement of paper PMC10065799, “High-throughput profiling of sequence recognition by tyrosine kinases and SH2 domains using bacterial peptide display” (eLife, 2023)
